Test results published in patent publication US20120124684A1.

Target: purified glutathione reductase (GR)
Experiment: cell-based or functional assay

purified αBC gave a GR activity in vitro (purified GR with purified αBC, compared to a BSA control; proteins added at a 1:4 molar ratio to GR) of 18%.
